Experimental data from PMC3729259 (The Prostate, 2010).

Target: Gal4-PAX6 fusion protein (human, UniProt P26367 1-422)
Assay: two-hybrid

Gal4-PAX6 fusion protein, sequence (P26367 whole entry, the tested form may be a part): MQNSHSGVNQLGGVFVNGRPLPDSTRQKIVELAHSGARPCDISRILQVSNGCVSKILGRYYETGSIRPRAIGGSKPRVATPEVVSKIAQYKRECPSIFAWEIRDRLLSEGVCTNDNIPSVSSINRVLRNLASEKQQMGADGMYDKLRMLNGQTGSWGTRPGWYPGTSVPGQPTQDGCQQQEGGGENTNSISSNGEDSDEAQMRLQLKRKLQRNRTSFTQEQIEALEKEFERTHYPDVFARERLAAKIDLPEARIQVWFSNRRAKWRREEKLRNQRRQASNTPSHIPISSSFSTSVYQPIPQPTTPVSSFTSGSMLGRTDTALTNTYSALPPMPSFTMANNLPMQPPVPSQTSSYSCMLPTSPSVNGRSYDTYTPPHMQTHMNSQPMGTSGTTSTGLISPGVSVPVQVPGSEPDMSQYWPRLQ

fold luciferase activity (against cells with pGal4 and pVP16): 4 fold
B1: VP16-AR fusion protein (receptor, UniProt P10275 1-920, looked up)
chain: MEVQLGLGRVYPRPPSKTYRGAFQNLFQSVREVIQNPGPRHPEAASAAPPGASLLLLQQQQQQQQQQQQQQQQQQQQQQQETSPRQQQQQQGEDGSPQAHRRGPTGYLVLDEEQQPSQPQSALECHPERGCVPEPGAAVAASKGLPQQLPAPPDEDDSAAPSTLSLLGPTFPGLSSCSADLKDILSEASTMQLLQQQQQEAVSEGSSSGRAREASGAPTSSKDNYLGGTSTISDNAKELCKAVSVSMGLGVEALEHLSPGEQLRGDCMYAPLLGVPPAVRPTPCAPLAECKGSLLDDSAGKSTEDTAEYSPFKGGYTKGLEGESLGCSGSAAAGSSGTLELPSTLSLYKSGALDEAAAYQSRDYYNFPLALAGPPPPPPPPHPHARIKLENPLDYGSAWAAAAAQCRYGDLASLHGAGAAGPGSGSPSAAASSSWHTLFTAEEGQLYGPCGGGGGGGGGGGGGGGGGGGGGGGEAGAVAPYGYTRPPQGLAGQESDFTAPDVWYPGGMVSRVPYPSPTCVKSEMGPWMDSYSGPYGDMRLETARDHVLPIDYYFPPQKTCLICGDEASGCHYGALTCGSCKVFFKRAAEGKQKYLCASRNDCTIDKFRRKNCPSCRLRKCYEAGMTLGARKLKKLGNLKLQEEGEASSTTSPTEETTQKLTVSHIEGYECQPIFLNVLEAIEPGVVCAGHDNNQPDSFAALLSSLNELGERQLVHVVKWAKALPGFRNLHVDDQMAVIQYSWMGLMVFAMGWRSFTNVNSRMLYFAPDLVFNEYRMHKSRMYSQCVRMRHLSQEFGWLQITPQEFLCMKALLLFSIIPVDGLKNQKFFDELRMNYIKELDRIIACKRKNPTSCSRRFYQLTKLLDSVQPIARELHQFTFDLLIKSHMVSVDFPEMMAEIISVQVPKILSGKVKPIYFHTQ
